Results taken from article PMC3734082 (The Journal of Cell Biology, 2013).

What was measured:
[1] = target: T1, MBP-CHC(1–1074)-His6 (UniProt Q00610 1-1074); assay: pull-down
T1 sequence (looked up): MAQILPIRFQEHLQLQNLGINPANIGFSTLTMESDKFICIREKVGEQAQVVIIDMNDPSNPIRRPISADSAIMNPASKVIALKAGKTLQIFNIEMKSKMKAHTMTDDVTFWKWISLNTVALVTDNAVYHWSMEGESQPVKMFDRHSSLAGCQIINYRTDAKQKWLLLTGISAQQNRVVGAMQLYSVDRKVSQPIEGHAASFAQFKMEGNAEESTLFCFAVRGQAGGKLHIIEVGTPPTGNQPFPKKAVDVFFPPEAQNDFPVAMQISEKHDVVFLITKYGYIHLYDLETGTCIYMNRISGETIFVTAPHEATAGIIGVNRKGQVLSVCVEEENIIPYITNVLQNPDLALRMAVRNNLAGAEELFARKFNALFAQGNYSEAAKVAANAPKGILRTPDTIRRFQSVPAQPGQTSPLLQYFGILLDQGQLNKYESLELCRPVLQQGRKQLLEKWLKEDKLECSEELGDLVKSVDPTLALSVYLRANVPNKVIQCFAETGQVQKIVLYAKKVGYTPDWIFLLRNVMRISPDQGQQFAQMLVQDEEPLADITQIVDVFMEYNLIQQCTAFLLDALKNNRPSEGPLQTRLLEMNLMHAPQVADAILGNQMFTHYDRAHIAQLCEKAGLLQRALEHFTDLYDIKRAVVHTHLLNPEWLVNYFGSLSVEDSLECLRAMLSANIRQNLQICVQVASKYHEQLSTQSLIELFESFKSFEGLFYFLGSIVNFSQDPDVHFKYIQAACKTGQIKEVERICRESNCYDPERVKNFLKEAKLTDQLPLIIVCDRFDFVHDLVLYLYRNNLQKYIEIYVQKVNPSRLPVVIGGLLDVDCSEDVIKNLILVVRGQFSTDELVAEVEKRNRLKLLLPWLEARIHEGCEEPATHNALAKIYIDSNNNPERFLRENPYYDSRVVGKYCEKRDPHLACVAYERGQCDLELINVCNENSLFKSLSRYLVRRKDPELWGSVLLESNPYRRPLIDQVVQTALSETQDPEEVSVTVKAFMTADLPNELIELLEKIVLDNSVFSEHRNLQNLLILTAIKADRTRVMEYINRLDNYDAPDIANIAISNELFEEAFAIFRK

[2] = target: T2, MBP-CHC(1–1074)-His6 C+ mutant (UniProt Q00610 1-1074, T87A | Q89A | K96E | K98E); assay: pull-down
T2 sequence (looked up): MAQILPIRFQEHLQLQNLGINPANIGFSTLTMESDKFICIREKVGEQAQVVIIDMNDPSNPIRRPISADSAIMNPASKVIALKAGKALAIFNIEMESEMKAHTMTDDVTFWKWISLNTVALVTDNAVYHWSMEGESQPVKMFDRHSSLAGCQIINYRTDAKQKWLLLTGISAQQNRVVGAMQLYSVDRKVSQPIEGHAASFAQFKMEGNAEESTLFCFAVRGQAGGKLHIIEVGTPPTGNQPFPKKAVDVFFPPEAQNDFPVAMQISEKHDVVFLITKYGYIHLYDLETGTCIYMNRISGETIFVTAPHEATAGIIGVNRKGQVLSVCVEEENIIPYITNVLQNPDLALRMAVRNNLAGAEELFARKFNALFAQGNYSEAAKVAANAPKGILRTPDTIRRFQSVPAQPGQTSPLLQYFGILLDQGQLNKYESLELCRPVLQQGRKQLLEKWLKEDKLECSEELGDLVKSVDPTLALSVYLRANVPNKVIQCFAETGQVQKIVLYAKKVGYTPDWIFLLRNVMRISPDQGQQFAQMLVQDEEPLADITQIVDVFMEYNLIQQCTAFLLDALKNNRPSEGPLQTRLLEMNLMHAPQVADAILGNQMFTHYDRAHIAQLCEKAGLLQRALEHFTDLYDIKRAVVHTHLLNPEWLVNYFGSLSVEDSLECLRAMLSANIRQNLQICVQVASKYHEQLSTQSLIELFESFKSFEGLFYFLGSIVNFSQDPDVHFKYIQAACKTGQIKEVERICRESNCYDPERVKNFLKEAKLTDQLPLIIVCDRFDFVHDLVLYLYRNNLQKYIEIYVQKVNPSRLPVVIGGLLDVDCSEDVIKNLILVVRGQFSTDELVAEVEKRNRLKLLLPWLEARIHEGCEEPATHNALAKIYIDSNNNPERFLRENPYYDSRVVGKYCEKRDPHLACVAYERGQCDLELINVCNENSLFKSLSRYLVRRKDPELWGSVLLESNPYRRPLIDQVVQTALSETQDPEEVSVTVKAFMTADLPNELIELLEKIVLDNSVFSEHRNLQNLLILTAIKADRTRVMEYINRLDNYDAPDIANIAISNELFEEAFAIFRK

binding result [1]: binds
binding result [2]: binds
B1: GST-TACC3-His6, phosphorylated with Aurora A/TPX2 (natural protein)
chain: not shown
modifications: phosphorylated in vitro with Aurora A/TPX2 (phosphoserine at 558, pS558)
